The nature of series [1]: folding stability dG unfold from chymotrypsin proteolysis; higher = more stable. Put shortly: (§1)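 Bayesian fitting of sequencing counts gave K50 for each design. Unfolding free energy followed by setting this against a sequence-predicted unfolded-state K50 and a shared folded-state K50, either per protease or with trypsin and chymotrypsin combined. The designs, under 80 residues and lacking cysteine, were digested in a PA-tagged cDNA display format at 11 threefold-diluted protease concentrations and without protease, and only those with AlphaFold2 dimer inter-PAE above 15 were kept.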

Series [2] in a line: folding stability dG unfold from trypsin proteolysis; higher = more stable. The gist of the method: as §1
Series [3] in a line: folding stability dG unfold (combined trypsin and chymotrypsin); higher = more stable. Put shortly: as §1

± gives the half width of the 95% confidence interval.

With “SMFRIRFKDGSEFDIELNEDGELTITNKNGKKITLTFKTKEEALKAAEELKKKYPNMKVEIEEVSPEELKSA [r9_1206_TrROS_Hall]”, the “folding stability dG unfold” value is 3.504 ± 0.016 kcal/mol in series [1], 2.6 ± 0.059 kcal/mol in series [2] and 3.13 ± 0.12 kcal/mol in series [3].

Consider “SMFRPFPLPDGRPAYDFIIPGLELASSFFPETGRPVLVLRPGGRLGAAPLFAADLDVLFSRPPLVAVEPDSA [r9_205_TrMRF]”, for which the results for the “folding stability dG unfold” value in series [1], in series [2] and in series [3] were 1.37 ± 0.17 kcal/mol, 0.634 ± 0.11 kcal/mol and 0.999 ± 0.14 kcal/mol, respectively.

As for “SMGSITITLPATPEELRELLREKGISPELAPSWEEVKEALKKAFPKNVTVTINPKSPVSEEAAKAAREGSSA [r9_74_JUSTAS]”, the “folding stability dG unfold” value in series [1] worked out at 1.45 ± 0.017 kcal/mol; in series [2] it was 0.462 ± 0.038 kcal/mol; in series [3], 1.13 ± 0.064 kcal/mol.

Take “SMGSTTVTVELEFEVEDPSVFPPDTTVDVPEEVIEKLRAEGYTVTEITTTVEPTPSGRVRVRVTMTVRVDSA [r9_465_JUSTAS]”: the figures for the “folding stability dG unfold” value in series [1], in series [2] and in series [3] were 2.77 ± 0.049 kcal/mol, 2.95 ± 0.05 kcal/mol and 2.93 ± 0.095 kcal/mol, respectively.

“SMIEELSDEEKVALAKELAEEIKKAREGGKPEEIPELIKRLKEVLEAASPPVQEEVLALIKEIKIPPKELSA [r9_182_JUSTAS]”: the entries for the “folding stability dG unfold” value in series [1], in series [2] and in series [3] were 1.7 ± 0.04 kcal/mol, 2.82 ± 0.065 kcal/mol and 2.23 ± 0.076 kcal/mol, respectively.

As for “SMIKPGEKIKKIKLKLENGEEVEATLVKNEDGSLVLFIKVDGEVYVFTFNPDGEIKIEKVSKEEAEKLLKSA [r9_1144_TrROS_Hall]”, the “folding stability dG unfold” value stood at 3.79 ± 0.046 kcal/mol in series [1], 2.05 ± 0.097 kcal/mol in series [2] and 3.4 ± 0.15 kcal/mol in series [3].

As for “SMITLELTDPATGAKYTLTIDPSTGKAKVTRTPPTGPPVSGTGTIEGNTLTITLYEPSGKPLATLTLPLPSA [r9_665_JUSTAS]”, the “folding stability dG unfold” value in series [1] worked out at 5.53 ± 0.1 kcal/mol; in series [2], 3.89 ± 0.11 kcal/mol; in series [3] it was 5.6 ± 0.13 kcal/mol.

Regarding “SMKEGIEAAIDELKEALEKGEGEVRVVLRFEGFVLEITIKPKGYKIEDIEIEPLPDDIPFIREREEVPPESA [r9_308_TrMRF]”, the “folding stability dG unfold” value in series [1] turned out to be 1.58 ± 0.19 kcal/mol; in series [2], 1.23 ± 0.051 kcal/mol; in series [3], 1.52 ± 0.24 kcal/mol.

For “SMKEKALEKAKEKAEEIKKKYSNVKVKVEVKVEITPKGEIKITYKVVIEKPEKEKPYWVKYPNGPWKKIGSA [r9_82_JUSTAS]”, the “folding stability dG unfold” value in series [1] is 1.86 ± 0.54 kcal/mol; in series [2], 1.2 ± 0.24 kcal/mol; in series [3] it was 1.5 ± 0.55 kcal/mol.

In the case of “SMKELVKRIAERFPNFKVKIKPEKTGGKKYRTVRIENPDSGRDMEIVFTKNGDIQIEMPNGRRIPLEDILSA [r9_1176_TrROS]”, the “folding stability dG unfold” value in series [1] came out at 1.1 ± 0.077 kcal/mol; in series [2], 1.46 ± 0.018 kcal/mol; in series [3], 1.36 ± 0.059 kcal/mol.

For “SMKEVEKREFPDGTTVTFSKSSSPVITIKVTTYSPVPNTSELSSSESTYTFPLPPGKPLTLEEVLKKVLESA [r9_614_JUSTAS]”, the “folding stability dG unfold” value in series [1] was determined as 1.38 ± 0.21 kcal/mol; in series [2] it was 0.54 ± 0.035 kcal/mol; in series [3] it was 1.02 ± 0.13 kcal/mol.

“SMKFTITLSNPVDGTTETIPLDVPLEELVKIIKEAHEKGGTVTITGLPEELAKEIAEKSGLDVSINPAPGSA [r9_1207_JUSTAS]”: the results for the “folding stability dG unfold” value in series [1], in series [2] and in series [3] were 2.57 ± 0.053 kcal/mol, 3.13 ± 0.14 kcal/mol and 2.85 ± 0.14 kcal/mol, respectively.

Regarding “SMKIEFLDVKEDGTIVIRLTLLRPDGKPPTKEEAAERAKEIAEILKPYFPDAEFTIEFDPESGEATIVIDSA [r9_485_TrMRF]”, the results for the “folding stability dG unfold” value in series [1], in series [2] and in series [3] were 4.7 ± 0.15 kcal/mol, 4.66 ± 0.57 kcal/mol and 4.83 ± 0.33 kcal/mol, respectively.

In the case of “SMKIIIEIEVEPGKTEEEIKEEAEALAKELAKKLGLPKEAKVKIEKVKLEDGKLRYIITIEVDGKTIEFESA [r9_776_TrROS_Hall]”, the “folding stability dG unfold” value is 3.63 ± 0.064 kcal/mol in series [1], 3.72 ± 0.29 kcal/mol in series [2] and 3.75 ± 0.24 kcal/mol in series [3].

For the sequence “SMKIKSIKIEPIRIGDEEYFLIPIEVDGEEIPPEEVKRLVEELFEKLGLPLDPVLLEDPESDIVLVLARGSA [r9_717_TrMRF]”, the “folding stability dG unfold” value came out at 1.34 ± 0.11 kcal/mol in series [1], 1.82 ± 0.053 kcal/mol in series [2] and 1.48 ± 0.16 kcal/mol in series [3].

Regarding “SMKITATETPVGDKTTVTITVTIDPKEFPNKPPTEEFYKKIAEELMKKLGLKTYNISKTSSNTYTITIVDSA [r9_883_JUSTAS]”, the “folding stability dG unfold” value is 2.5 ± 0.025 kcal/mol in series [1], 2.42 ± 0.061 kcal/mol in series [2] and 2.5 ± 0.049 kcal/mol in series [3].

With “SMKITIVENEDGSLKIKVYFKDTGKVVEKTFEKGETIEEQVKKLAEELEKELGLEVVDVEIVKLPPPEKPSA [r9_1205_TrROS_Hall]”, the “folding stability dG unfold” value in series [1] stood at 3.74 ± 0.096 kcal/mol; in series [2], 2.63 ± 0.23 kcal/mol; in series [3] it was 3.57 ± 0.12 kcal/mol.

As to “SMKITLEKGNYKIEIYKHPETGEIIAKVYDKNGKLVAVAHIKIEVEPDKDGKKIIKKIEIHVHILKEDPKSA [r9_262_TrMRF]”, the entries for the “folding stability dG unfold” value in series [1], in series [2] and in series [3] were 3.77 ± 0.11 kcal/mol, 2.58 ± 0.22 kcal/mol and 3.02 ± 0.31 kcal/mol, respectively.

These data come from the supplement of paper PMC12764529.
